Test results taken from paper PMC5756042, “Molecular Defects of the Disease-Causing Human Arrestin-1 C147F Mutant” (Investigative Ophthalmology & Visual Science, 2018).
Where a chain is given by its changes, count along the chain named. In names and notes the source's numbering stands.

B1: human arrestin-1 C147F mutant (natural protein, UniProt P10523 1-405, looked up)
chain: MAASGKTSKSEPNHVIFKKISRDKSVTIYLGNRDYIDHVSQVQPVDGVVLVDPDLVKGKKVYVTLTCAFRYGQEDIDVIGLTFRRDLYFSRVQVYPPVGAASTPTKLQESLLKKLGSNTYPFLLTFPDYLPCSVMLQPAPQDSGKSFGVDFEVKAFATDSTDAEEDKIPKKSSVRLLIRKVQHAPLEMGPQPRAEAAWQFFMSDKPLHLAVSLNKEIYFHGEPIPVTVTVTNNTEKTVKKIKAFVEQVANVVLYSSDYYVKPVAMEEAQEKVPPNSTLTKTLTLLPLLANNRERRGIALDGKIKHEDTNLASSTIIKEGIDRTVLGILVSYQIKVKLTVSGFLGELTSSEVATEVPFRLMHPQPEDPAKESYQDANLVFEEFARHNLKDAGEAEEGKRDKNDVDE
modifications: labeled with 14C-Leu and 3H-Leu
notes: human arrestin-1 with the disease-causing C147F mutation (dominant retinitis pigmentosa in humans), transcription construct in pGEM2; The mutation occurs in human patients; here it was introduced into the transcription construct by PCR; also called CF; source: in vitro translated (rabbit reticulocyte lysate), radiolabelled
B2: human arrestin-1 C147L mutant (natural protein, UniProt P10523 1-405, looked up)
chain: B1 chain with F147L
modifications: labeled with 14C-Leu and 3H-Leu
notes: source: in vitro translated (rabbit reticulocyte lysate), radiolabelled
B3: human arrestin-1 C147I mutant (natural protein, UniProt P10523 1-405, looked up)
chain: B1 chain with F147I
modifications: labeled with 14C-Leu and 3H-Leu
notes: as for B2

What follows are binders tested against T1, light-activated unphosphorylated rhodopsin (bovine, UniProt P02699 1-348) (assay: radioligand binding; direct binding assay: 1 nM radiolabelled arrestin-1 (50 fmol) with 0.3 μg P-Rh* or Rh* (0.22 μM) in 50 μL of 50 mM Tris-HCl pH 7.4, 100 mM potassium acetate, 1 mM EDTA, 1 mM dithiothreitol, 5 minutes at 37°C under room light; bound and free separated at 4°C on Sepharose 2B-CL; scintillation counting; nonspecific binding subtracted). Details: one partner purified.
T1 construct: source: purified from cow eyes; unphosphorylated; rhodopsin-containing membranes
T1 sequence (P02699 whole entry): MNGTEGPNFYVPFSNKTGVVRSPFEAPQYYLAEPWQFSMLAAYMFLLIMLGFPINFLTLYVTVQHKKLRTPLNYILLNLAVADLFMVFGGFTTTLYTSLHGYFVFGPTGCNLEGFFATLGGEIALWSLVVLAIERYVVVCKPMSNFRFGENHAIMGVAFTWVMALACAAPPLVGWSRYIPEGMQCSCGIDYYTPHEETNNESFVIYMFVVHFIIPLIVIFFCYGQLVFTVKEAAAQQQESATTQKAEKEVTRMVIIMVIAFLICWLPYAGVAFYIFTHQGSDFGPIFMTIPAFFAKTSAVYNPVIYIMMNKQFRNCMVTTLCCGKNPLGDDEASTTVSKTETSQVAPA
In the case of B1, the “fold increase of Rh* binding against WT” value is reported as greater than 2 fold. B2 was tested, and the “fold increase of Rh* binding against WT” value was greater than 2 fold. With B3 the “fold increase of Rh* binding against WT” value was greater than 2 fold.
